Here are results for 21 molecules from patent publication US20110129459A1 (Chugai, published 2011).

Positions count from the first letter of the chain named.

Broadly, the Kd is the equilibrium constant for the complex coming apart. In general, koff refers to a measure of how fast the partners let go of each other. Usually kon stands for the rate constant with which the complex forms.

To fix the notation:
T1: rhNR10 (recombinant human NR10) (human, UniProt Q8NI17 20-519, limits assumed)
T1 construct: also called IL-31 receptor; IL31RA
T1 sequence: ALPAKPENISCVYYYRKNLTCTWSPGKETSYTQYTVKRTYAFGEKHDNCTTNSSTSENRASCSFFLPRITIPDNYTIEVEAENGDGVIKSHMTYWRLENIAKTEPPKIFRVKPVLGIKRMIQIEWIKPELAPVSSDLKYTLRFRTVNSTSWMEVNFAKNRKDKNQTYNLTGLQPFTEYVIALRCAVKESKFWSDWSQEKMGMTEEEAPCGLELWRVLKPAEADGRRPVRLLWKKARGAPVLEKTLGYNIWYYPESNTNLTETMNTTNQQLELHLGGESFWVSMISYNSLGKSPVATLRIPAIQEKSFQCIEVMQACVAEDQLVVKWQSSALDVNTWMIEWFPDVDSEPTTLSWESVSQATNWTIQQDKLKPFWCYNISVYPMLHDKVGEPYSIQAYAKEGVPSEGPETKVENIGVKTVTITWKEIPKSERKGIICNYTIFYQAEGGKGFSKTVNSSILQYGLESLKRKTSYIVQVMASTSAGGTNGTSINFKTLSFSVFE

B1: H30L17 (H30-M58 / L17) (antibody, V domains shown)
VH: QVQLVQSGAEVKKPGASVKVSCKASGYTFTGYIMNWVRQAPGQGLEWMGLINPYNGGTDYNPQFQDRVTITADESTSTAYMELSSLRSEDTAVYYCARDGYDDGPYTLETWGQGTLVTVSS
VL: DIQMTQSPSSLSASVGDRVTITCQASEDIYSFVAWYQQKPGKAPKLLIYNAQTEAQGVPSRFSGSGSGTDFTLTISSLQPEDFATYYCQHHYDSPLTFGGGTKVEIKR
B2: H42L17 (H42-M58 / L17) (antibody, V domains shown)
VH: B1 VH with I33V, M34L, E74K
VL: B1 VL
B3: H46L17 (H46-M58 / L17) (antibody, V domains shown)
VH: B1 VH with I33A, E74K
VL: B1 VL
B4: H78L17 (H78-M58 / L17) (antibody, V domains shown)
VH: B1 VH with D66G, E74K
VL: B1 VL
B5: H28L17 (H28-M58 / L17) (antibody, V domains shown)
VH: B1 VH with I33V, M34L
VL: B1 VL
B6: H34L17 (H34-M58 / L17) (antibody, V domains shown)
VH: B1 VH with I33A
VL: B1 VL
B7: H97L50 (H97-M58 / L50) (antibody, V domains shown)
VH: B1 VH with D59S, P62Q
VL: B1 VL with V33L
B8: H57L17 (H57-M58 / L17) (antibody, V domains shown)
VH: B1 VH with D66G
VL: B1 VL
B9: H71L17 (H71-M58 / L17) (antibody, V domains shown)
VH: B1 VH with I33A, D66G
VL: B1 VL
B10: H92L17 (H92-M58 / L17) (antibody, V domains shown)
VH: B1 VH with I33A, D66G, E74K
VL: B1 VL
B11: H98L50 (H98-M58 / L50) (antibody, V domains shown)
VH: B1 VH with D59S, P62Q, E74K
VL: B1 VL with V33L
B12: H0La130 (H0-SKSC / La130) (antibody, V domains shown)
VH: B1 VH with D59S, P62Q, Q63K, Q65K, D66G, L108M, E109D, T110Y
VL: B1 VL with Q24R, A25T, D28N, S31R, Q52K, E54L, Q56K, D93E
B13: Ha111L0 (Ha111-SKSC / L0) (antibody, V domains shown)
VH: B1 VH with M34L, D59S, P62Q, Q63K, Q65K, D66G, L108M, E109D, T110Y
VL: B1 VL with Q24R, A25T, D28N, V33L, Q52K, E54L, Q56K, D93E
B14: H0La328 (H0-SKSC / La328) (antibody, V domains shown)
VH: B1 VH with D59S, P62Q, Q63K, Q65K, D66G, L108M, E109D, T110Y
VL: B1 VL with Q24R, A25T, D28N, V33L, Q52K, E54L, Q56K, D93E, S94D
B15: H0La134 (H0-SKSC / La134) (antibody, V domains shown)
VH: B1 VH with D59S, P62Q, Q63K, Q65K, D66G, L108M, E109D, T110Y
VL: B1 VL with Q24R, A25T, D28N, S31R, V33L, Q52K, E54L, Q56K, D93E
B16: Ha204L0 (Ha204-SKSC / L0) (antibody, V domains shown)
VH: B1 VH with P62Q, Q63K, Q65K, D66G, L108M, E109D, T110Y
VL: B1 VL with Q24R, A25T, D28N, V33L, Q52K, E54L, Q56K, D93E
B17: Ha103L0 (Ha103-SKSC / L0) (antibody, V domains shown)
VH: B1 VH with M34I, D59S, P62Q, Q63K, Q65K, D66G, L108M, E109D, T110Y
VL: B1 VL with Q24R, A25T, D28N, V33L, Q52K, E54L, Q56K, D93E
B18: Ha101L0 (Ha101-SKSC / L0) (antibody, V domains shown)
VH: B1 VH with I33V, D59S, P62Q, Q63K, Q65K, D66G, L108M, E109D, T110Y
VL: B1 VL with Q24R, A25T, D28N, V33L, Q52K, E54L, Q56K, D93E
B19: Ha219L0 (Ha219-SKSC / L0) (antibody, V domains shown)
VH: B1 VH with D59S, Q63K, Q65K, D66G, L108M, E109D, T110Y
VL: B1 VL with Q24R, A25T, D28N, V33L, Q52K, E54L, Q56K, D93E
B20: H0La303 (H0-SKSC / La303) (antibody, V domains shown)
VH: B1 VH with D59S, P62Q, Q63K, Q65K, D66G, L108M, E109D, T110Y
VL: B1 VL with Q24R, A25T, D28N, V33L, Q52K, E54L, Q56K
notes: also called Ls303
B21: H0La326 (H0-SKSC / La326) (antibody, name in Kabat numbering, V domains shown)
VH: B1 VH with D59S, P62Q, Q63K, Q65K, D66G, L108M, E109D, T110Y
VL: B1 VL with Q24R, A25T, D28N, V33L, Q52K, E54L, Q56K, D93E, T97F

The target in one assay is T1, rhNR10 (recombinant human NR10). The assay can be described thus: SPR, Biacore T100; antibody captured on Protein A, rhNR10 as analyte. The method, then: (§1) Kinetic analysis of the antigen-antibody reaction was carried out using Biacore T100 (GE Healthcare Biosciences). The antigen-antibody interaction was measured by immobilizing rec-Protein A (hereinafter Protein A) (ZYMED) onto a sensor chip, capturing an antibody on the immobilized Protein A, and then reacting the antigen as an analyte. Various concentrations of rhNR10 were used as the antigen. The kinetic parameters, association rate constant kₐ (1/Ms) and dissociation rate constant kd (1/s), were calculated from the sensorgrams obtained by the measurement. Then, KD (M) was determined based on the rate constants. Each parameter was determined using Biacore T100 Evaluation Software version 1.1 (GE Healthcare Biosciences).
(§2) The running buffer used was HBS-EP+. Each antibody was prepared at 0.25 μg/ml, or prepared so that about 100 RU would bind to Protein A. rhNR10 used as an analyte was prepared at 0, 38.5, 77.0, and 154 nM, or at 0, 19.25, and 77.01 nM using HBS-EP+. In the measurement, first, the antibody solution was captured on Protein A, and an analyte solution was reacted at a flow rate of 20 μL/min for three minutes. Then, the solution was switched to HBS-EP+, and the dissociation phase was measured for five minutes. After measurement of the dissociation phase, the sensor chip was regenerated by washing with 10 mM glycine-HCl (pH 1.5). The obtained sensorgrams were kinetically analyzed using the Biacore-specific data analysis software, Biacore T100 Evaluation Software Version 1.1.
For orientation: In SPR one partner is held on a chip, and binding of the other changes the refractive index at the surface.
As for B1, the Kd turned out to be 0.83 nM, the koff was determined as 0.00057 s⁻¹ and the on-rate (kon) came to 680000 M⁻¹ s⁻¹.
On to B2, for which the dissociation constant (Kd) was 0.65 nM, the koff was 0.00037 s⁻¹ and the on-rate constant (kon) was determined as 570000 M⁻¹ s⁻¹.
Take B3: the Kd is 4.6 nM, the off-rate constant (koff) was determined as 0.0013 s⁻¹ and the association rate constant (kon) was found to be 290000 M⁻¹ s⁻¹.
Regarding B4, the Kd worked out at 1.1 nM, the koff was determined as 0.0007 s⁻¹ and the kon is 610000 M⁻¹ s⁻¹.
Take B5: the Kd worked out at 0.52 nM, the koff amounted to 0.00033 s⁻¹ and the on-rate (kon) was determined as 640000 M⁻¹ s⁻¹.
Taken in the same sequence, the figures for B6 were 3.6 nM, 0.0012 s⁻¹ and 340000 M⁻¹ s⁻¹.
On the same counts, the results for B7 are 3.5 nM, 0.0013 s⁻¹ and 360000 M⁻¹ s⁻¹.
On the same counts, the results for B8 are 0.77 nM, 0.00055 s⁻¹ and 710000 M⁻¹ s⁻¹.
Take B9: the Kd amounted to 3.3 nM, the koff worked out at 0.0012 s⁻¹ and the kon worked out at 370000 M⁻¹ s⁻¹.
On the same counts, the results for B10 are 4.1 nM, 0.0013 s⁻¹ and 310000 M⁻¹ s⁻¹.
Taken in the same sequence, the figures for B11 were 4.6 nM, 0.0013 s⁻¹ and 290000 M⁻¹ s⁻¹.

The next assay has the same target. The assay is described as above. This is another data set of the same source. The method, then:
as §1, §2
For the molecule B12, the Kd was 1.5 nM, the off-rate (koff) is 0.0004 s⁻¹ and the kon was determined as 260000 M⁻¹ s⁻¹.
Taken in the same sequence, the figures for B13 were 2.1 nM, 0.00056 s⁻¹ and 260000 M⁻¹ s⁻¹.
On the same counts, the results for B14 are 2.9 nM, 0.00052 s⁻¹ and 180000 M⁻¹ s⁻¹.
Turning to B15, the Kd turned out to be 1.8 nM, the dissociation rate constant (koff) came to 0.00044 s⁻¹ and the kon is 250000 M⁻¹ s⁻¹.
Taken in the same sequence, the figures for B16 were 1.3 nM, 0.00048 s⁻¹ and 370000 M⁻¹ s⁻¹.
Taken in the same sequence, the figures for B17 were 2.4 nM, 0.00053 s⁻¹ and 220000 M⁻¹ s⁻¹.
On the same counts, the results for B18 are 1.5 nM, 0.00031 s⁻¹ and 200000 M⁻¹ s⁻¹.
For B19, the Kd was found to be 3 nM, the dissociation rate constant (koff) was determined as 0.00096 s⁻¹ and the kon turned out to be 320000 M⁻¹ s⁻¹.
On to B20, for which the Kd was 2.1 nM, the koff came out at 0.00046 s⁻¹ and the association rate constant (kon) turned out to be 220000 M⁻¹ s⁻¹.
Consider B21, for which the dissociation constant (Kd) came to 3.7 nM, the koff stood at 0.00052 s⁻¹ and the kon worked out at 140000 M⁻¹ s⁻¹.
